Experimental data reported in US20180334494A1 (UNIVERSITY OF VIRGINIA PATENT FOUNDATION, published 2018).

Target: T1, C-terminal domain of Zaire Ebola virus Nucleoprotein (NP^Ct) (Zaire Ebola virus, UniProt P18272 641-739)
T1 construct: also called Zaire NP^Ct; Zaire EBOV NP^Ct
Assay: ITC

T1 sequence (P18272 641-739, tags left off): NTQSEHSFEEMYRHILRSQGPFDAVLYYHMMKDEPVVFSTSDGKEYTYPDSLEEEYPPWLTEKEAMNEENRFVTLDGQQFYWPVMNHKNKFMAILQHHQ

B1: Fab 6 (Fab, V domains shown)
VH: EVQLVESGGGLVQPGGSLRLSCAASGFNVYYYYIHWVRQAPGKGLEWVASISPYYGYTSSYADSVKGRFTISADTSKNTAYLQMNSLRAEDTAVYYCARWSYDQSMSYKSGMDYWGQGTLVTVSS
VL: DIQMTQSPSSLSASVGDRVTITCRASQSVSSAVAWYQQKPGKAPKLLIYSASSLYSGVPSRFSGSRSGTDFTLTISSLQPEDFATYYCQQYSYSLVTFGQGTKVEIKR
- Kd: ~5 nM

B2: Fab 20 (Fab, V domains shown)
VH: EVQLVESGGGLVQPGGSLRLSCAASGFNISYSSIHWVRQAPGKGLEWVASIYSYSGYTSYADSVKGRFTISADTSKNTAYLQMNSLRAEDTAVYYCARSYWYHVGSWHYTGMDYWGQGTLVTVSS
VL: DIQMTQSPSSLSASVGDRVTITCRASQSVSSAVAWYQQKPGKAPKLLIYSASSLYSGVPSRFSGSRSGTDFTLTISSLQPEDFATYYCQQSSSSLITFGQGTKVEIKR
- Kd: ~5 nM
